From paper PMC11233918
Where two headings read alike, the source gives them in different places.

What was measured:
Assay in all cases: EMSA
SUMO-TDP-43 RRM1,2 [1] = molecular target: T1, SUMO-TDP-43 RRM1,2 (human, UniProt Q13148 102-269)
SUMO-TDP-43 RRM1,2 [2] = molecular target: T1, SUMO-TDP-43 RRM1,2; remark: listed apart in the source
SUMO-TDP-43 RRM1,2 [3] = molecular target: T1, SUMO-TDP-43 RRM1,2; remark: listed apart in the source
SUMO-TDP-43 RRM1,2 [4] = molecular target: T1, SUMO-TDP-43 RRM1,2; remark: listed apart in the source

T1 sequence (Q13148 102-269): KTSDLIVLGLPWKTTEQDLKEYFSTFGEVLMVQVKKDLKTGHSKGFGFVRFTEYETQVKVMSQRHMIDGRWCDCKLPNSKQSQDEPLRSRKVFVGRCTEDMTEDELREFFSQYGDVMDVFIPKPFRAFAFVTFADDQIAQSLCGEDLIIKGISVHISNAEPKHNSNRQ

Q: Does GUGUGUGUGUGUGUGUGUGUGUGUGUGUGUGU (ssRNA, 2'-O-methyl and phosphorothioate; positions in Table S1 (not in material)) [(GU)16] bind (SUMO-TDP-43 RRM1,2 [1])?
A: Result: binds

Q: Does GUGUGAAUGAAUGUGUGAAUGAAU (ssRNA, 2'-O-methyl and phosphorothioate; positions in Table S1 (not in material)) [('AUG12')2] bind (SUMO-TDP-43 RRM1,2 [2])?
A: Result: binds

Q: Does GUGUGUGUGUGU (ssRNA, see Table S1 (not in material)) [(GU)6] bind (SUMO-TDP-43 RRM1,2 [3])?
A: Result: binds

Q: Does CACACACACACACACACACACACACACACACA (ssRNA, see Table S1 (not in material)) [(CA)16] bind (SUMO-TDP-43 RRM1,2 [4])?
A: Result: no binding

Q: Does AAAAAAAAAAAAAAAAAAAAAAAAAAAAAAAA (ssRNA, see Table S1 (not in material)) [A32] bind (SUMO-TDP-43 RRM1,2 [4])?
A: Result: no binding
